Results on 2 molecules are retold here after patent publication US20230357429A1 (JANUX THERAPEUTICS, published 2023).

Substitutions are numbered along the chain they refer to. In names and notes the source's numbering stands. Where no end group is shown, it is not given here.

One assay concerns the target T1, Peptide-30 (cysteine pairing not given here; also: biotinylated, site not given here).
T1 peptide: TSLICFRNVYCWNV
The assay is described as follows: ELISA, Fab on captured biotin-peptide. In general terms: ELISA stands for enzyme-linked immunosorbent assay.

For the next assay, the target named is T2, Peptide-11 (cysteine pairing not given here; also: biotinylated (site not given here)).
T2 peptide: VDFCALYNWPVCET
The assay is described as follows: ELISA: biotinylated peptide captured on neutravidin plate, Fab titrated, HRP secondary antibody.

A further assay addresses T3, Peptide-15 (cysteine pairing not given here; also: biotinylated (site not given here)).
T3 peptide: LDFCKLYQWPVCFT
The description is as above.

The target in another assay is T4, Peptide-16 (cysteine pairing not given here; also: biotinylated (site not given here)).
T4 peptide: IDFCLLYDWPVCAS
The assay is described as above.

A further assay addresses T5, Peptide-24 (cysteine pairing not given here; also: biotinylated (site not given here)).
T5 peptide: SVLFCVKNLYCWVT
The description is as above.

For the next assay, the target named is T6, Peptide-19 (cysteine pairing not given here; also: biotinylated (site not given here)).
T6 peptide: PDFCQLYNWPVCAG
The assay is described as above.

The target in another assay is T7, Peptide-21 (cysteine pairing not given here; also: biotinylated (site not given here)).
T7 peptide: IDFCSLYQWPVCGT
The description is as above.

The next assay concerns the target T8, Peptide-22 (cysteine pairing not given here; also: biotinylated (site not given here)).
T8 peptide: VDFCTIYKWPVCEG
Described as above.

A further assay has as its target T9, Peptide-44 (cysteine pairing not given here; also: biotinylated, site not given here).
T9 peptide: VEFCKQWTWFGCMT
The assay is described as follows: ELISA, Fab on captured biotin-peptide.

Another assay has as its target T10, Peptide-58 (cysteine pairing not given here; also: biotinylated, site not given here).
T10 peptide: VEICKQWFYTVCLS
The assay is described as follows: ELISA, Fab on captured biotin-peptide.

The target in assay [1] is T11, Peptide-25 (cysteine pairing not given here; also: biotinylated (site not given here)).
T11 peptide: VDFCKIYSWPVCHQ
Kind of assay: ELISA, Fab on captured biotin-peptide; Table 18 peptide set (separate ELISA run).

For assay [2], the target named is T11, Peptide-25. The assay is described as follows: ELISA, Fab on captured biotin-peptide; Table 19 peptide set (separate ELISA run).

B1: TBD-1 wt (Fab, V domains shown)
VH: QVQLQQSGSELKKPGASVKVSCKASGYTFTNYGMNWVKQAPGQGLKWMGWINTYTGEPTYTDDFKGRFAFSLDTSVSTAYLQISSLKADDTAVYFCARGGFGSSYWYFDVWGQGSLVTVSS
VL: DIQLTQSPSSLSASVGDRVSITCKASQDVSIAVAWYQQKPGKAPKLLIYSASYRYTGVPDRFSGSGSGTDFTLTISSLQPEDFAVYYCQQHYITPLTFGAGTKVEIKR
notes: Fab; the heavy chain entry is VH-CH1; also called wild-type anti-TROP2 Fab (hRS7); TROP2 Fab
By EC50 is commonly meant the midpoint of the concentration-response curve. Lower therefore signals an effect from little substance. For B1, the EC50 with Peptide-30 was 9.1 nM. Further, the binding result with Peptide-11, in the assay with Peptide-15, with Peptide-16, with Peptide-24, with Peptide-19 and with Peptide-21 was “binds” throughout. The binding result in the assay with Peptide-22 is reported as “binds”.

B2: TBD-11 (HC R98A) (Fab, V domains shown)
VH: B1 VH with R98A
VL: B1 VL
notes: Fab; also called HC R98A mutant
In the case of B2, the EC50 with Peptide-44 was 112 nM; with Peptide-58, 10.7 nM; in the assay with Peptide-25 [1] it was 1000 nM; with Peptide-25 [2], 453 nM.
